{"source": "paper PMC7156744", "about": "“CdbA is a DNA-binding protein and c-di-GMP receptor important for nucleoid organization and segregation in Myxococcus xanthus” (Nature Communications, 2020)", "key": {"CdbA": {"biological_target": "T1, CdbA (Myxococcus xanthus, UniProt Q1D489)", "T1 construct": "gene MXAN_4361; full-length CdbA-His6 (67 amino acids), tetramer", "assay": "ITC (also DRaCALA, SEC, HDX-MS; EMSA shows inhibition of DNA binding)"}, "[1]": {"biological_target": "T2, CdbA-His6 (Myxococcus xanthus DK1622) (UniProt Q1D489)", "T2 sequence": "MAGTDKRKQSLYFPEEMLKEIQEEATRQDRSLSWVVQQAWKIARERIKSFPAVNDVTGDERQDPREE", "assay": "EMSA", "settings": "10x buffer: 380 mM HEPES, 380 mM NaCl, 50 mM MgCl2, 50% glycerol, 10 mM DTT, 15 ng/ul poly(dI-dC), 50 ng probe, 30 C 30 min, 10% PAGE 1x TBE 4 C, pH not …"}, "[2]": {"biological_target": "CdbA-His6 (C-terminally His6-tagged CdbA, MXAN_4361) (Myxococcus xanthus)", "assay": "crystal structure; crystal form two (tetrameric form) of full-length CdbA-His6, 0.1 M sodium malonate, 0.1 M HEPES-NaOH pH 7.0, 30% polyacrylic acid sodium salt 2100; molecular replacement; three copies in the asymmetric unit"}, "[3]": {"biological_target": "CdbA-His6 (C-terminally His6-tagged CdbA, MXAN_4361) (Myxococcus xanthus)", "assay": "SEC; analytical SEC, 200 µM CdbA incubated with 200 µM c-di-GMP for 1 minute at 25 °C, Superdex S200 Increase 10/300 GL, SEC buffer, 4 °C; oligomer size from apparent molecular mass"}, "[4]": {"biological_target": "CdbA-His6 (C-terminally His6-tagged CdbA, MXAN_4361) (Myxococcus xanthus)", "assay": "SEC; analytical SEC, 200 µM CdbA wild-type or variant without c-di-GMP, Superdex S200 Increase 10/300 GL, SEC buffer (20 mM HEPES-Na pH 7.5, 200 mM NaCl, 20 mM MgCl2, 20 mM KCl), 4 °C; oligomer size from apparent molecular mass"}, "[5]": {"biological_target": "CdbA-His6 (C-terminally His6-tagged CdbA, MXAN_4361) (Myxococcus xanthus)", "assay": "crystal structure; crystal form one (dimeric form) of full-length CdbA-His6, 0.1 M MgCl2, 0.1 M HEPES-NaOH pH 7.0, 15% PEG 4000; SAD phasing with a Pt derivative; residues 5-52 traced"}, "[6]": {"biological_target": "CdbA-His6 (C-terminally His6-tagged CdbA, MXAN_4361) (Myxococcus xanthus)", "assay": "crystal structure; crystal form one (dimeric form) of full-length CdbA-His6, 0.1 M MgCl2, 0.1 M HEPES-NaOH pH 7.0, 15% PEG 4000; SAD phasing with a Pt derivative; residues 5-52 traced", "remark": "listed apart in the source"}, "[7]": {"biological_target": "CdbA^K8A/S10A-His6 (Myxococcus xanthus)", "assay": "SEC; analytical SEC, 200 µM CdbA wild-type or variant without c-di-GMP, Superdex S200 Increase 10/300 GL, SEC buffer (20 mM HEPES-Na pH 7.5, 200 mM NaCl, 20 mM MgCl2, 20 mM KCl), 4 °C; oligomer size from apparent molecular mass"}, "[8]": {"biological_target": "CdbA^R27A/R30A-His6 (Myxococcus xanthus)", "assay": "SEC; analytical SEC, 200 µM CdbA wild-type or variant without c-di-GMP, Superdex S200 Increase 10/300 GL, SEC buffer (20 mM HEPES-Na pH 7.5, 200 mM NaCl, 20 mM MgCl2, 20 mM KCl), 4 °C; oligomer size from apparent molecular mass"}, "[9]": {"tested_on": "CdbA-His6 (Myxococcus xanthus DK1622)", "assay": "EMSA", "settings": "10x buffer: 380 mM HEPES, 380 mM NaCl, 50 mM MgCl2, 50% glycerol, 10 mM DTT, 15 ng/ul poly(dI-dC), 50 ng probe, 30 C 30 min, 10% PAGE 1x TBE 4 C, pH not …"}}}
{"compound": "Nc1nc2c(ncn2[C@@H]2O[C@@H]3CO[P@](=O)(O)O[C@H]4[C@@H](O)[C@H](n5cnc6c(=O)[nH]c(N)nc65)O[C@@H]4CO[P@](=O)(O)O[C@H]3[C@H]2O)c(=O)[nH]1", "note": "[c-di-GMP]", "values": [{"measurement": "Kd", "setting": "CdbA", "result": "~83", "unit": "nM"}]}
{"compound": "ACTTGGGTCTCCGGGGCGGATTCGGGGTGACGACCTGAACACACCTGGGCCGTTATCCGACAGACTCCCAAGTGGGTCAACGGTTTCCAAGGACTCATTCCGAGGTCGCACGGTCCGTCCCCGTGCTCGTCCAGTTGCACGTAAGCTGTGCAACCATGCGCGAAAAAGGAAACGCCCCGGACTCCACGAGGAAGTCCGGGGCGCTTCGGAAAGAGGGACCGCCTAGAGAAATCTCCAGGCGGGCCCGTGG (double strand) [cdbAB promoter]", "values": [{"measurement": "Kd", "setting": "[1]", "result": 900, "unit": "nM"}]}
{"compound": "CdbA-His6 (C-terminally His6-tagged CdbA, MXAN_4361) (natural protein)", "values": [{"measurement": "stoichiometry N", "setting": "[2]", "result": 4}, {"measurement": "stoichiometry N", "setting": "[3]", "result": 4}, {"measurement": "stoichiometry N", "setting": "[4]", "result": 4}, {"measurement": "stoichiometry N", "setting": "[5]", "result": 2}, {"measurement": "stoichiometry N", "setting": "[6]", "result": 4}]}
{"compound": "CdbA^K8A/S10A-His6 (natural protein)", "values": [{"measurement": "stoichiometry N", "setting": "[7]", "result": 4}]}
{"compound": "CdbA^R27A/R30A-His6 (natural protein)", "values": [{"measurement": "stoichiometry N", "setting": "[8]", "result": 4}]}
{"compound": "GACACACCTTCTCCGAGCGGCTTGCGGTGTTCGGGGGACTCGGGCTTGCGCTCGGGTTCGGCGCGGGCCTGCGCGGAGACGCGGAAGCCTTCACTGGGGTTCAGTGGATCTTCCCGGTCGGATCGAAGTGAATTTCTTGCGATCAGACCGACTTGTGAGAATGTACGCGCATCTACAGGAGGTCGCGCACATGGACATGAATCCCCGTCTTACCTCAGTGGTCTTCCGGCTCAACCGCGAGAAGCTCGAC (double strand) [MXAN_4058 promoter, two repeats mutated]", "values": [{"measurement": "Kd", "setting": "[1]", "result": 2500, "unit": "nM"}]}
{"compound": "GACACACCTTCTCCGAGCGGCTTGCGGTGTTCGGGGGACTCGGGCTTGCGCTCGGGTTCGGCGCGGGCCTGCGCGGAGACGCGGAAGCCTTCACTGGGGTTCAGTGGATCTTCCCGGTCGGATCGAAGTGAATTTCTTGCGATCAGACCGACTTGTGAGAATGTGTGCGCATCTACAGGAGGTCGCGCACATGGACATGAATCCCCGTCTTACCTCAGTGGTCTTCCGGCTCAACCGCGAGAAGCTCGAC (double strand) [MXAN_4058 promoter, one repeat mutated]", "values": [{"measurement": "Kd", "setting": "[1]", "result": 1100, "unit": "nM"}]}
{"compound": "GACACACCTTCTCCGAGCGGCTTGCGGTGTTCGGGGGACTCGGGCTTGCGCTCGGGTTCGGCGCGGGCCTGCGCGGAGACGCGGAAGCCTTCACTGGGGTTCAGTGGATCTTCCCGGTCGGATCGAAGTGAATTTCTTGCGATCAGACCGACTTGTGAGAATGTGTGCGCATCTGTAGGAGGTCGCGCACATGGACATGAATCCCCGTCTTACCTCAGTGGTCTTCCGGCTCAACCGCGAGAAGCTCGAC (double strand) [peak rank #1 fragment (MXAN_4058 promoter), WT]", "values": [{"measurement": "Kd", "setting": "[1]", "result": 400, "unit": "nM"}]}
{"compound": "cdbAB promoter", "values": [{"measurement": "Kd", "setting": "[9]", "result": 900, "unit": "nM"}]}
{"compound": "no-peak control fragment", "values": [{"measurement": "Kd", "setting": "[9]", "result": 4000, "unit": "nM"}]}
{"compound": "peak rank #1 fragment (MXAN_4058 promoter), WT", "values": [{"measurement": "Kd", "setting": "[9]", "result": 400, "unit": "nM"}]}
